{
  "source": "paper PMC3436905",
  "key": {"[1]": {"molecular_target": "surface vimentin (human (endogenous in HeLa and HT-29)) (UniProt P08670)", "sequence (P08670 whole entry)": "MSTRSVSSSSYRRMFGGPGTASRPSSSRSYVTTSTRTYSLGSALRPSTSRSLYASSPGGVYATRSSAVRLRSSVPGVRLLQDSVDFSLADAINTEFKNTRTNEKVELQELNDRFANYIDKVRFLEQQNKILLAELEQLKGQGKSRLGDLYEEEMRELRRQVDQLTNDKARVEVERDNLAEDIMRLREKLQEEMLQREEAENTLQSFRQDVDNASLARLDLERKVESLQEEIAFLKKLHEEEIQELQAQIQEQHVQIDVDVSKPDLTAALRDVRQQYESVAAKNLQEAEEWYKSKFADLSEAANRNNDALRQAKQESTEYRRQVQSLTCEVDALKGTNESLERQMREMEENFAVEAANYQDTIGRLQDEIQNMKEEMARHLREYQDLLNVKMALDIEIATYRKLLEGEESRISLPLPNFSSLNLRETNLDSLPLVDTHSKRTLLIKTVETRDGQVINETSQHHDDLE", "assay": "flow cytometry on cells"}, "[2]": {"molecular_target": "surface vimentin (human (endogenous in HeLa and HT-29)) (UniProt P08670)", "assay": "flow cytometry on cells", "remark": "listed apart in the source"}},
  "note": "Read-outs that look alike come from different tables or passages of the source.",
  "data": [
    {"substance": "Cowpea mosaic virus nanoparticles (complex)", "values": [
      {"measurement": "percent of cells positive for CPMV uptake", "setting": "[1]", "value": 38, "unit": "%"},
      {"measurement": "percent of cells positive for CPMV uptake", "setting": "[2]", "value": 17, "unit": "%"}
    ]}
  ]
}
